# Experimental data as given in article PMC5458078, “Global mapping of CARM1 substrates defines enzyme specificity and substrate recognition” (Nature Communications, 2017).
# B1: CARM1 140–608: CARM1 140–608 lacks the first 140 residues encompassing the EVH1 domain (protein)
# chain: RTEESSAVQYFQFYGYLSQQQNMMQDYVRTGTYQRAILQNHTDFKDKIVLDVGCGSGILSFFAAQAGARKIYAVEASTMAQHAEVLVKSNNLTDRIVVIPGKVEEVSLPEQVDIIISEPMGYMLFNERMLESYLHAKKYLKPSGNMFPTIGDVHLAPFTDEQLYMEQFTKANFWYQPSFHGVDLSALRGAAVDEYFRQPVVDTFDIRILMAKSVKYTVNFLEAKEGDLHRIEIPFKFHMLHSGLVHGLAFWFDVAFIGSIMTVWLSTAPTEPLTHWYQVRCLFQSPLFAKAGDTLSGTCLLIANKRQSYDISIVAQVDQTGSKSSNLLDLKNPFFRYTGTTPSPPPGSHYTSPSENMWNTGSTYNLSSGMAVAGMPTAYDLSSVIASGSSVGHNNLIPLANTGIVNHTHSRMGSIMSTGIVQGSSGAQGSGGGSTSAHYAVNSQFTMGGPAISMASPMSIPTNTMHYGS
# modifications: left off: FLAG, end not stated, kept
# notes: CARM1 140–608 lacks the first 140 residues encompassing the EVH1 domain
# Legend:
# [1] = test system: BAF155, MED12, PABP1, NCOA3 and TET2; test: Co-immunoprecipitation of BAF155, MED12, PABP1, NCOA3 and TET2 with FLAG-tagged CARM1, western blot; type: cell-based; settings: FLAG-tagged construct transiently transfected in HEK293T CARM1 KO cells; anti-FLAG IP
# Description: The structure of the N-terminal domain of CARM1 (residues 28–140) resembles those of the EVH1 domains, a subfamily of PH domains that bind proline-rich sequences. With our discovery that CARM1 substrates contain proline-rich motifs, we posited that the protein's N-terminal domain may be required for substrate recognition. To test this hypothesis, we generated three CARM1 constructs: one full-length (CARM1 FL) and two N-terminal truncations CARM1 28–608 and CARM1 140–608 (Fig. 3a). […] We transiently transfected the three FLAG-tagged CARM1 fusion constructs in HEK293T CARM1 KO cells. CARM1 was immunoprecipitated from all three cell lines using anti-FLAG M2 resin, and four known CARM1 substrates/interactors (that is, BAF155 (ref. [20]), MED12 (ref. [30]), PABP1 (ref. [36]) and NCOA3 (ref. [19])) and newly identified TET2 were detected by western blotting. […] To globally assess the magnitude of reduction in CARM1–substrate interactions induced by the loss of the EVH1 domain, we visualized overall protein changes in CARM1 immunoprecipitates by western blotting using the ADMA antibody (Fig. 3c).
# Cells were collected by trypsinization, washed with Dulbecco's phosphate buffer saline (Life Technologies, Carlsbad, CA) and lysed by suspension in lysis buffer (50 mM Tris-HCl pH 8.0, 150 mM NaCl, 10% glycerol, 0.5% Triton X-100 and 1 × protease inhibitor cocktail (Sigma-Aldrich)). After brief sonication followed by centrifugation, total protein was quantified using the BioRad Protein Assay (BioRad, Hercules, CA), and 20 μg protein was resolved by SDS–PAGE. Proteins were transferred to a nitrocellulose membrane for 1.5 h at 350 mA. Membranes were blocked with 5% nonfat milk at room temperature for 1 h and incubated overnight with diluted primary antibody at 4 °C. Membranes were then washed and incubated with HRP-conjugated secondary antibody for 1 h at room temperature. Signal was visualized by enhanced chemiluminescence reagents (Thermo Scientific, Rockford, IL) and X-ray film exposure followed by scanning and digitalization. […]
# HEK293T CARM1 KO cells [2] = test: Rescue of endogenous BAF155 and MED12 methylation, transient transfection, western blot; type: cell-based; settings: transient expression in HEK293T CARM1 KO cells
# Experimental: Next, we transiently transfected FL and the two aforementioned CARM1 truncations in HEK293T CARM1 KO cells and measured substrate methylation by western blotting with ADMA antibodies.
# Cells were collected by trypsinization, washed with Dulbecco's phosphate buffer saline (Life Technologies, Carlsbad, CA) and lysed by suspension in lysis buffer (50 mM Tris-HCl pH 8.0, 150 mM NaCl, 10% glycerol, 0.5% Triton X-100 and 1 × protease inhibitor cocktail (Sigma-Aldrich)). After brief sonication followed by centrifugation, total protein was quantified using the BioRad Protein Assay (BioRad, Hercules, CA), and 20 μg protein was resolved by SDS–PAGE. Proteins were transferred to a nitrocellulose membrane for 1.5 h at 350 mA. Membranes were blocked with 5% nonfat milk at room temperature for 1 h and incubated overnight with diluted primary antibody at 4 °C. Membranes were then washed and incubated with HRP-conjugated secondary antibody for 1 h at room temperature. Signal was visualized by enhanced chemiluminescence reagents (Thermo Scientific, Rockford, IL) and X-ray film exposure followed by scanning and digitalization. Me-PABP1 and PABP1 antibodies, me-BAF155 antibody[20] and me-MED12 antibody[30] were generated previously in the Xu lab. FLAG antibody (catalogue #F7425) was purchased from Sigma and used at a dilution of 1:5,000; BAF155 antibody (sc-10756) was purchased from Santa Cruz and used at a dilution of 1:1,000; MED12 antibody (ab70842) was purchased from Abcam (Cambridge, MA) and used at 1:1,000 dilution.
# MCF7 CARM1 KO cells = test: Quantitative MS of ADMA-containing peptides in MCF7 CARM1 KO cells expressing CARM1 28-608 or CARM1 140-608, and in CARM1 KO; type: cell-based, human; settings: stable CARM1 140–608 in MCF7 CARM1 KO cells; reference CARM1 28–608; three biological replicas
# HEK293T CARM1 KO cells [3] = test: Total ADMA-containing proteins co-precipitated with FLAG-tagged CARM1, western blot; type: cell-based; settings: FLAG IP probed with ADMA antibody; compared with CARM1 FL and CARM1 28–608
# Description: The structure of the N-terminal domain of CARM1 (residues 28–140) resembles those of the EVH1 domains, a subfamily of PH domains that bind proline-rich sequences. With our discovery that CARM1 substrates contain proline-rich motifs, we posited that the protein's N-terminal domain may be required for substrate recognition. To test this hypothesis, we generated three CARM1 constructs: one full-length (CARM1 FL) and two N-terminal truncations CARM1 28–608 and CARM1 140–608 (Fig. 3a). […] We transiently transfected the three FLAG-tagged CARM1 fusion constructs in HEK293T CARM1 KO cells. CARM1 was immunoprecipitated from all three cell lines using anti-FLAG M2 resin, and four known CARM1 substrates/interactors (that is, BAF155 (ref. [20]), MED12 (ref. [30]), PABP1 (ref. [36]) and NCOA3 (ref. [19])) and newly identified TET2 were detected by western blotting. […]
# Cells were collected by trypsinization, washed with Dulbecco's phosphate buffer saline (Life Technologies, Carlsbad, CA) and lysed by suspension in lysis buffer (50 mM Tris-HCl pH 8.0, 150 mM NaCl, 10% glycerol, 0.5% Triton X-100 and 1 × protease inhibitor cocktail (Sigma-Aldrich)). After brief sonication followed by centrifugation, total protein was quantified using the BioRad Protein Assay (BioRad, Hercules, CA), and 20 μg protein was resolved by SDS–PAGE. […]
# [4] = test system: total cell lysates derived from MCF7 CARM1 KO cells; test: In vitro methylation of total cell lysates by recombinant CARM1 proteins, autoradiography; type: biochemical, human; settings: 3H-SAM, 1–4 h, 30 °C
# Experimental: The FL and N-terminal domain-deleted version of human CARM1 cDNAs, and other PRMT FL cDNAs were cloned into pFN21K Halo Tag CMV Flexi mammalian expression vector (Promega, Madison, WI) using the unique Sgfl and Pmel site[55]. To express the protein, DNA constructs were transiently transfected into HEK293T CARM1 KO cells in 15 cm dishes using transIT-LT1 reagent (Mirus Bio, Madison, WI) according to the manufacturer's protocol. Proteins were allowed to express for 48 h. Cell pellets were then collected and lysed in lysis buffer (50 mM HEPES, pH 7.5, 150 mM NaCl, 0.005% NP-40, 0.5 mM EDTA, supplemented with 1 × protease inhibitor cocktail before use). The cells were sonicated on ice using a Branson Sonifier 450 with a microtip at 35% amplitude (10 s on, 30 s off, 6 cycles). […] The resin was centrifuged at 3,000 r.p.m. for 5 min, and the supernatant containing the cleaved protein was collected and protein concentration was determined using the Bradford assay (Thermo Scientific, Rockford, IL). Protein purity was assessed by running SDS–PAGE and Coomassie Blue staining.
# Purified recombinant enzyme and substrates were incubated in methylation buffer (50 mM Tris-HCl, pH 8.0, 100 mM NaCl and 0.5 mM EDTA) for 1–4 h at 30 °C in the presence of 1 μl radioactive S-adenosyl-L-[methyl-^3H] methionine. […] Protein methylation was detected by autoradiography.
molecule,measurement,setting,value
B1,"Co-precipitation of BAF155, MED12, PABP1, NCOA3 and TET2",[1],substantially lower amounts of them were detected
same,Methylation of endogenous BAF155 and MED12,HEK293T CARM1 KO cells [2],failed to restore endogenous protein methylation
same,Abundance of ADMA-containing peptides,MCF7 CARM1 KO cells,massive reduction in abundances of ADMA-containing peptides
same,Abundance of CARM1-interacting (ADMA-containing) proteins,HEK293T CARM1 KO cells [3],global decrease in abundance of CARM1-interacting proteins
same,Total protein methylation of cell lysate,[4],substantial reduction of total protein methylation
